In this experiment the target is T1, Thermus thermophilus wild type SlyD polypeptide (Thermus thermophilus).
T1 sequence: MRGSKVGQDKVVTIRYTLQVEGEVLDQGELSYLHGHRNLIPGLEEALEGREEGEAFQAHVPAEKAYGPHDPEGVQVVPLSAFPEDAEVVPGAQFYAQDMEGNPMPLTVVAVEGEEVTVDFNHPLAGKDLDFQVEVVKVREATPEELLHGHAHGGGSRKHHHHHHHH
As to the kind of experiment: ELISA, clone culture supernatant. In general terms: An ELISA detects its analyte on a solid surface through an enzyme-linked reagent.

This passage reports reactivity [mE] results from patent publication US20160137728A1.

B1: MAb<h-IGF-1>M-11.09.15 (antibody, V domains shown)
VH: QVQLQQSGAELVRPGSSVKISCKASGYAFSNLWMNWVKQRPGQGLEWIGQIYPGDGDTNYYGDFKGKATLTADSSSSTAYMQLSRLTSEDSAVYFCARIGYYGMDYWGQGTSVTVSS
VL: DVVLTQTPLSLPVNIGDEASISCKSTKSLLSSDGLTYLDWYLQKPGQSPQVLIYLVSNRFSGVPDRFSGSGSGTDFTLKISRVEAEDLGVYYCFQSNYLPTFGAGTKLELK
Molecule B1 displayed a reactivity [mE] of 32 mE.
